# In US20100151556A1 (CELLECTIS, published 2010):
# T1: H33 I-CreI mutant (C3 / HprCH3.3 cutter)
# T1 chain: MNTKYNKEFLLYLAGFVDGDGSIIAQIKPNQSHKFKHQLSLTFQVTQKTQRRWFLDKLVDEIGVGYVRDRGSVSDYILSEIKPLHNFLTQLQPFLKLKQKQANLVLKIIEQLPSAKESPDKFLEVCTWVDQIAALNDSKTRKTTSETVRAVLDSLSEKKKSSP
# Key:
# [1] = target: the molecule itself; assay: size-exclusion chromatography of the purified protein; no self-association
# Experimental: The molecular weight of Sc I-CreI in solution was estimated by size-exclusion chromatography of the purified protein. The column fractions were analyzed by SDS-PAGE, and the 31.4 kDa band eluted primarily, which corresponded to a molecular mass of 30 kDa.
# [2] = target: T1, H33 I-CreI mutant (C3 / HprCH3.3 cutter)
# [3] = target: the molecule itself; assay: analytical gel filtration (Superdex 200) of the purified single chain; no self-association
# Experimental: Circular dichroism (CD) measurements were performed on a Jasco J-810 spectropolarimeter using a 0.2 cm path length quartz cuvette adm […] protein solutions in phosphate saline buffers. Equilibrium unfolding was induced increasing temperature at a rate of 1° C./min (using a programmable Peltier thermoelectric). Analytical gel filtration chromatography was performed at room temperature with an AKTA FPLC system (GE) using a Superdex 200 10/300GL column in 20 mM sodium phosphate buffer pH 6.0 1 M NaCl. A sample of 100 μL of SC-v3v2G19S constructs at a concentration of 0.3 mg/ml was injected and eluted at a flow rate of 0.2 ml/min. The column was calibrated with blue dextran (excluded volume) and molecular weight markers from 17 to 670 kDa (BioRad).
protein,measurement,setting,value
"Single chain I-CreI meganuclease (enzyme, Produced 'with or without an histidine tag'; It was purified on a cobalt column; also called Sc I-CreI; scI-CreI) MANTKYNKEFLLYLAGFVDGDGSIIAQIKPNQSYKFKHQLSLTFQVTQKTQRRWFLDKLVDEIGVGYVRDRGSVSDYILSEIKPLHNFLTQLQAMLERIRLFNMREFLLYLAGFVDGDGSIIAQIKPNQSYKFKHQLSLTFQVTQKTQRRWFLDKLVDEIGVGYVRDRGSVSDYILSEIKPLHNFLTQLQPFLKLKQKQANLVLKIIEQLPSAKESPDKFLEVCTWVDQIAALNDSKTRKTTSETVRAVLDSLSEKKKSSPAAD",binding result,[1],no binding
M2-RM2-M3 RAG1 single chain meganuclease (protein) MNTKYNKEFLLYLAGFVDGDGSIIAQIKPRQSNKFKHQLSLTFAVTQKTQRRWFLDKLVDEIGVGYVYDSGSVSDYRLSEIKPLHNFLTQLQPFLKLKQKQANLVLKIIEQLPSAKESPDKFLEVCTWVDQIAALNDSKTRKTTSETVRAVLDSLSEKKKSSPAAGGSDKYNQALSKYNQALSKYNQALSGGGGSNKEFLLYLAGFVDGDGSIIAQINPNQSSKFKHRLRLTFYVTQKTQRRWFLDKLVDEIGVGYVRDSGSVSQYVLSEIKPLHNFLTQLQPFLKLKQKQANLVLKIIEQLPSAKESPDKFLEVCTWVDQIAALNDSKTRKTTSETVRAVLDSLSEKKKSSP,cleavage of the palindromic RAG1.10.2 target (yeast screen),,M2-RM2-M3 was found to cleave also RAG1.10.2
M2G19S-RM2-M3 RAG1 single chain meganuclease (protein) MNTKYNKEFLLYLAGFVDSDGSIIAQIKPRQSNKFKHQLSLTFAVTQKTQRRWFLDKLVDEIGVGYVYDSGSVSDYRLSEIKPLHNFLTQLQPFLKLKQKQANLVLKIIEQLPSAKESPDKFLEVCTWVDQIAALNDSKTRKTTSETVRAVLDSLSEKKKSSPAAGGSDKYNQALSKYNQALSKYNQALSGGGGSNKEFLLYLAGFVDGDGSIIAQINPNQSSKFKHRLRLTFYVTQKTQRRWFLDKLVDEIGVGYVRDSGSVSQYVLSEIKPLHNFLTQLQPFLKLKQKQANLVLKIIEQLPSAKESPDKFLEVCTWVDQIAALNDSKTRKTTSETVRAVLDSLSEKKKSSP,cleavage of the palindromic RAG1.10.2 target (yeast screen),,abolishes RAG1.10.2 cleavage
X2 I-CreI mutant (C4 cutter) (protein) MNTKYNKEFLLYLAGFVDGDGSIIAQIKPNQSHKFKHALQLTFKVTQKTQRRWFLDKLVDEIGVGYVQDSGSVSNYILSEIKPLHNFLTQLQPFLKLKQKQANLVLKIIEQLPSAKESPDKFLEVCTWVDQIAALNDSKTRKTTSETVRAVLDSLSEKKKSSP,cleavage of the palindromic C4 DNA target on co-expression of X2 and H33 in yeast,,but also the C3 and C4 targets
same,cleavage of the XPC C1 DNA target on co-expression in yeast,[2],cleaves the C1 target
MA17 I-CreI mutant (HprCH3.4 cutter) (protein) MNTKYNKEFLLYLAGFVDGDGSIIAQIKPNQTHKFKHQLSLTFRVTQKTQRRWFLDKLVDEIGVGYVYDSGTVSNYNLSEIKPLHNFLTQLQPFLKLKQKQANLVLKIIEQLPSAKESPDKFLEVCTWVDQIAALNDSKTRKTTSETVRAVLDSLSEKKKSSP,cleavage of the palindromic HprCH3.3 and HprCH3.4 targets on co-expression of MA17 and H33 in yeast,,cleavage of the HprCH3.3 and HprCH3.4 targets
same,cleavage of the HprCH3 DNA target on co-expression in yeast,[2],resulted in the cleavage of the HprCH3 DNA target
H33 I-CreI mutant (C3 / HprCH3.3 cutter) (protein) MNTKYNKEFLLYLAGFVDGDGSIIAQIKPNQSHKFKHQLSLTFQVTQKTQRRWFLDKLVDEIGVGYVRDRGSVSDYILSEIKPLHNFLTQLQPFLKLKQKQANLVLKIIEQLPSAKESPDKFLEVCTWVDQIAALNDSKTRKTTSETVRAVLDSLSEKKKSSP,cleavage of the palindromic HprCH3.3 and HprCH3.4 targets on co-expression of MA17 and H33 in yeast,,cleavage of the HprCH3.3 and HprCH3.4 targets
X2-RM2-H33G19S single chain meganuclease (protein) MNTKYNKEFLLYLAGFVDGDGSIIAQIKPNQSHKFKHALQLTFKVTQKTQRRWFLDKLVDEIGVGYVQDSGSVSNYILSEIKPLHNFLTQLQPFLKLKQKQANLVLKIIEQLPSAKESPDKFLEVCTWVDQIAALNDSKTRKTTSETVRAVLDSLSEKKKSSPAAGGSDKYNQALSKYNQALSKYNQALSGGGGSNKEFLLYLAGFVDSDGSIIAQIKPNQSHKFKHQLSLAFQVTQKTQRRWFLDKLVDEIGVGYVRDRGSVSDYILSEIKPLHNFLTQLQPFLKLKQKQANLVLKIIWRLPSAKESPDKFLEVCTWVDQIAALNDSKTRKTTSETVRAVLDSLSEKKKSSP,cleavage of the palindromic C3 target (CHO extrachromosomal assay),,greatly reduces the activity toward the C3 target
X2-RM2-H33 single chain meganuclease (protein) MNTKYNKEFLLYLAGFVDGDGSIIAQIKPNQSHKFKHALQLTFKVTQKTQRRWFLDKLVDEIGVGYVQDSGSVSNYILSEIKPLHNFLTQLQPFLKLKQKQANLVLKIIEQLPSAKESPDKFLEVCTWVDQIAALNDSKTRKTTSETVRAVLDSLSEKKKSSPAAGGSDKYNQALSKYNQALSKYNQALSGGGGSNKEFLLYLAGFVDGDGSIIAQIKPNQSHKFKHQLSLAFQVTQKTQRRWFLDKLVDEIGVGYVRDRGSVSDYILSEIKPLHNFLTQLQPFLKLKQKQANLVLKIIWRLPSAKESPDKFLEVCTWVDQIAALNDSKTRKTTSETVRAVLDSLSEKKKSSP,cleavage of the palindromic C3 target (yeast screen and CHO extrachromosomal assay),,the strong cleavage of the C3 target with single chain molecules
X2-L1-H33 single chain meganuclease (protein) MNTKYNKEFLLYLAGFVDGDGSIIAQIKPNQSHKFKHALQLTFKVTQKTQRRWFLDKLVDEIGVGYVQDSGSVSNYILSEIKPLHNFLTQLQPFLKLKQKQANLVLKIIEQLPSAKESPDKFLEVCTWVDQIAALNDSKTRKTTSETVRAVLDSLSEKKKSSPAAGGGGSGGGGSGGGGSGGGGSNKEFLLYLAGFVDGDGSIIAQIKPNQSHKFKHQLSLAFQVTQKTQRRWFLDKLVDEIGVGYVRDRGSVSDYILSEIKPLHNFLTQLQPFLKLKQKQANLVLKIIWRLPSAKESPDKFLEVCTWVDQIAALNDSKTRKTTSETVRAVLDSLSEKKKSSP,cleavage of the palindromic C3 target (yeast screen and CHO extrachromosomal assay),,the strong cleavage of the C3 target with single chain molecules
X2-L1-H33G19S single chain meganuclease (protein) MNTKYNKEFLLYLAGFVDGDGSIIAQIKPNQSHKFKHALQLTFKVTQKTQRRWFLDKLVDEIGVGYVQDSGSVSNYILSEIKPLHNFLTQLQPFLKLKQKQANLVLKIIEQLPSAKESPDKFLEVCTWVDQIAALNDSKTRKTTSETVRAVLDSLSEKKKSSPAAGGGGSGGGGSGGGGSGGGGSNKEFLLYLAGFVDSDGSIIAQIKPNQSHKFKHQLSLAFQVTQKTQRRWFLDKLVDEIGVGYVRDRGSVSDYILSEIKPLHNFLTQLQPFLKLKQKQANLVLKIIWRLPSAKESPDKFLEVCTWVDQIAALNDSKTRKTTSETVRAVLDSLSEKKKSSP,cleavage of the palindromic C3 target (CHO extrachromosomal assay),,greatly reduces the activity toward the C3 target
"single-chain M3-RM2-M2G19S meganuclease (enzyme, also called SC-v3v2G19S; not shown: His6 tag at the C-terminus) MANTKYNKEFLLYLAGFVDGDGSIIAQINPNQSSKFKHRLRLTFYVTQKTQRRWFLDKLVDEIGVGYVRDSGSVSQYVLSEIKPLHNFLTQLQPFLKLKQKQANLVLKIIEQLPSAKESPDKFLEVCTWVDQIAALNDSKTRKTTSETVRAVLDSLSGKKKSSPAAGGSDKYNQALSKYNQALSKYNQALSGGGGSNKEFLLYLAGFVDSDGSIIAQIKPRQSNKFKHQLSLTFAVTQKTQRRWFLDKLVDEIGVGYVYDSGSVSDYRLSEIKPLHNFLTQLQPFLKLKQKQANLVLKIIEQLPSAKESPDKFLEVCTWVDQIAALNDSKTRKTTSETVRAVLDSLSEKKKSSP",binding result,[3],no binding
